The target in assay [1] is T1, human IL-2Rβ (CD122), full-length, on cells (human, UniProt P14784 27-551).
T1 construct: whole, on cells; also called human IL-2Rβγ; human IL-2βγ
T1 sequence (looked up): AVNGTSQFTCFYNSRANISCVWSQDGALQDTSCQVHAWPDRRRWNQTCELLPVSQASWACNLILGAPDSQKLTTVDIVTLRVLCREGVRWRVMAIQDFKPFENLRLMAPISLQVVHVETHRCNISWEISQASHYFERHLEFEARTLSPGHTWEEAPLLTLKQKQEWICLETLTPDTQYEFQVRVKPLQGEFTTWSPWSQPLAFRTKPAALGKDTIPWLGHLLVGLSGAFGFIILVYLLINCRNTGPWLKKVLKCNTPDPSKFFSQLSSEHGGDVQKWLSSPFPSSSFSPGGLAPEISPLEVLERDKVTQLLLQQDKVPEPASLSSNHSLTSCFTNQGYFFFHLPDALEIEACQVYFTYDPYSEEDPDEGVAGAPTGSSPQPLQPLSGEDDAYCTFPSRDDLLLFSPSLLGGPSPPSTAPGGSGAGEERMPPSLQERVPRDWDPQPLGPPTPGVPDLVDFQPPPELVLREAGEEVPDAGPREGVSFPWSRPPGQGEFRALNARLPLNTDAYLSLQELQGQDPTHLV
Briefly: flow cytometry on CHO-K1 cells expressing human IL-2Rβ and IL-2Rγ (panel 'Cell Binding human IL-2Rbg CHO'); unit taken from the axis 'Antibody Concentration nM'. The protocol:
(§1) CHO-K1 cells stably expressing either full-length human or cyno IL-2Rβ and IL-2Rγ cultured in the log phase of growth were harvested with Accutase solution, resuspended in FACS buffer, and plated at 100,000 cells/well in a 96 well plate. The concentrations indicated in FIG. 5 of antibodies starting at 100 nM and diluted 1:3 were incubated with the cells for 45 minutes on a plate shaker at4° C. After washing, cells were incubated with goat anti-human kappa DyL650 secondary antibody for 20 minutes on a plate shaker at4° C. Cells were washed again and analyzed on a FACSArray flow cytometer. Data were analyzed using Novoexpress and GraphPad Prism software.
(In general: Flow cytometry measures light scatter and fluorescence of single cells or particles in a stream.)

In assay [2] the target is T2, recombinant cynomolgus IL-2Rβ (extracellular domain, Ala1-Thr215) (cynomolgus, UniProt Q38J85 27-240).
T2 construct: extracellular domain; Analyte in SPR; also called cynomolgus LL-2Rβ; Cyno IL-2RB
T2 sequence (looked up): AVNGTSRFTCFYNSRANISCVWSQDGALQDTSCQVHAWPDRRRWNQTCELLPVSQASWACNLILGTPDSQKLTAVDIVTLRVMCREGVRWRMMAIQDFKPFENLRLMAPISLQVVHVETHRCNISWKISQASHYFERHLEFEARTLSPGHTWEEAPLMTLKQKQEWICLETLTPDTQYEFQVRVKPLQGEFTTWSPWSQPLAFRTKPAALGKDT
Kind of assay: SPR, antibody captured on Protein A chip. In a few lines: (§2)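 Antibodies captured on a Protein A chip (0.5 μg/mL, 60 s), then exposed to IL-2Rβ extracellular domain (Ala1-Thr215) at about 0.4–11 nM; 300 s association, 1200 s dissociation. On- and off-rates and KD from a global 1:1 binding fit.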
A general note: In SPR one partner is held on a chip, and binding of the other changes the refractive index at the surface.

Assay [3] concerns the target T3, recombinant human IL-2Rβ (extracellular domain, Ala1-Thr215) (human, UniProt P14784 27-240).
T3 construct: extracellular domain; Analyte in SPR; Ala1-Thr215 is counted on the mature protein; also called human LL-2Rβ; Human IL-2RB
T3 sequence (looked up): T2 sequence (looked up) with R7Q, T66A, A74T, M83L, M92V, K127E, M158L
Briefly: SPR, antibody captured on Protein A chip. In a few lines: as §2

Assay [4] addresses T4, cynomolgus IL-2Rβ (CD122), full-length, on cells (cynomolgus, UniProt Q38J85 27-551).
T4 construct: whole, on cells; Co-expressed with full-length cynomolgus IL-2Rγ on CHO-K1 cells; also called cynomolgus IL-2Rβγ; cyno IL-2βγ
T4 sequence (looked up): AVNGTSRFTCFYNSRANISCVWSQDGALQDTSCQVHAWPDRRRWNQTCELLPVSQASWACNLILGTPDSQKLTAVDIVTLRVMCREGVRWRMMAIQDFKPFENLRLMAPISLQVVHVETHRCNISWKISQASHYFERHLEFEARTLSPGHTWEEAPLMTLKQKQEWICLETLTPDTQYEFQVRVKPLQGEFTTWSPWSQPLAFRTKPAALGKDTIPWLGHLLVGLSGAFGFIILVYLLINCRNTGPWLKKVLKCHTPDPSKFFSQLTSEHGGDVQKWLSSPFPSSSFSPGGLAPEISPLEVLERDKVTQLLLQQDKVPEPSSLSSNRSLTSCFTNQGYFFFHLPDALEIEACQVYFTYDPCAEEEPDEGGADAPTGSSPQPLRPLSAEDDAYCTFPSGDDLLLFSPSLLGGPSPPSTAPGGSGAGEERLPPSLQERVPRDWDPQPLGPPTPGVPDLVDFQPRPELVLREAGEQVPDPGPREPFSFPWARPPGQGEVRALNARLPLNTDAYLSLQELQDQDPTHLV
Kind of assay: flow cytometry on CHO-K1 cells expressing cynomolgus IL-2Rβ and IL-2Rγ (panel 'Cell Binding cyno IL-2Rbg CHO'); unit taken from the axis 'Antibody Concentration nM'. Here is the method:
as §1

The target in assay [5] is T1, human IL-2Rβ (CD122), full-length, on …. Briefly: flow cytometry competition: antibody titrated against recombinant IL-15 (2 nM) binding to HEK293 cells expressing human IL-2Rβ and IL-2Rγ. Here is the method: (§3) HEK293 cells stably transfected with human IL-2Rβ and IL-2Rγ were plated at 100,000 cells/well in a 96 well plate. Antibodies were titrated at the concentrations indicated in FIG. 8 starting at 100 nM and diluted 1:3, and added to the cells. Recombinant IL-2 (5 nM) or recombinant IL-15 (2 nM) were also added to the cells. Cells were incubated for 30 minutes on a plate shaker at 4° C. Cells were washed and then analyzed on a flow cytometer, and data were analyzed using Novoexpress and GraphPad Prism software.

Assay [6] has the same target. Briefly: flow cytometry competition: antibody titrated against recombinant IL-2 (5 nM) binding to HEK293 cells expressing human IL-2Rβ and IL-2Rγ. The protocol:
as §3

The target is the same in assay [7]. Kind of assay: flow cytometry on CHO-K1 cells expressing human IL-2Rβ and IL-2Rγ. The protocol:
(§4) CHO-K1 cells stably expressing full-length human or cynomolgus IL-2Rβ and IL-2Rγ cultured in the log phase of growth were harvested with Accutase solution, resuspended in FACS buffer, and plated at 100,000 cells/well in a 96-well plate. The concentrations of antibodies indicated in FIGS. 1 and 2 starting at 100 nM and diluted 1:3 were incubated with the cells for 45 minutes on a plate shaker at 4° C. After washing, the cells were incubated with goat-anti-human kappa DyL650 secondary antibody for 20 minutes on a plate shaker at 4° C. Cells were washed again and analyzed on a FACSArray flow cytometer. Data were analyzed using Novoexpress and GraphPad Prism software. Table 3 lists anti-CD122 chimeric antibody binding characteristics: affinity to human and cyno CD122 protein (KD, measured by SPR assay), ability to block IL-2 (SPR assay), and binding EC50 to cell-expressed human and cyno CD122/CD132 (cell-based receptor binding assay).

Assay [8] deals with T2, recombinant cynomolgus IL-2Rβ …. Kind of assay: SPR.
For assay [9], the target named is T3, recombinant human IL-2Rβ (extracellular …). Kind of assay: SPR.
Assay [10] has as its target T4, cynomolgus IL-2Rβ (CD122), full-length, …. Briefly: flow cytometry on CHO-K1 cells expressing cynomolgus IL-2Rβ and IL-2Rγ. Here is the method:
as §4

Numbering of substitutions follows the chain as printed.

B1: APE15140 (antibody, V domains shown)
VH: EVQLVQSGAEVKKPGATVKISCKVSGFNFKESLIHWVQQAPGKGLEWMGWIDNEAGETEYAPGFQDRVTITADTSTDTAYMELSSLRSEDTAVYYCARGGPWFLSYWGQGTTVTVSS
VL: EIVMTQSPATLSVSPGERATLSCRASQIISNNLHWYQQKPGQAPRLLIIYGLQSISGIPARFSGSRSGTEFTLTISSLQSEDFAVYYCQQSNNWPWTFGQGTKLEIKR
notes: M10-1275 series
Usually EC50 stands for the concentration needed to bring the measured effect to its halfway point. A low value points to a more potent agent. As a reminder, the Kd is the equilibrium constant for the complex coming apart. Turning to B1, the EC50 in [1] was 0.138 nM; in assay [4] it was 0.18 nM. The Kd in assay [2] was found to be 0.0102 nM; in assay [3], 0.0217 nM.

B2: APE15169 (antibody, V domains shown)
VH: B1 VH
VL: B1 VL with Y87F, W96Y
notes: M10-1275 series
For B2, the EC50 in assay [1] is 0.308 nM; in assay [4] it was 0.333 nM. In addition, the figures for the dissociation constant (Kd) in [2] and in assay [3] were 0.0144 nM and 0.0995 nM, respectively.

B3: APE15148 (antibody, V domains shown)
VH: QVQLVQSGAEVKKPGASVKVSCKASGYTFSRYWIQWVRQAPGQGLEWMGEILPGSGSINHNEKFQGRVTMTRDTSTSTVYMELSSLRSEDTAVYYCTRHYGSFDYWGQGTTVTVSS
VL: DIQMTQSPSSLSASVGDRVTITCKASQNVGTDVAWYQQKPGKAPKSLIYSASYRYSGVPSRFSGSGSGTDFTLTISSLQPEDFATYFCHQYESYPFTFGQGTKLEIKR
notes: M6-p1625 series
Regarding B3, the EC50 in assay [1] stood at 0.105 nM; in [4], 0.103 nM. The Kd in assay [2] stood at 0.0715 nM; in [3], 0.0945 nM.

B4: APE15170 (antibody)
heavy: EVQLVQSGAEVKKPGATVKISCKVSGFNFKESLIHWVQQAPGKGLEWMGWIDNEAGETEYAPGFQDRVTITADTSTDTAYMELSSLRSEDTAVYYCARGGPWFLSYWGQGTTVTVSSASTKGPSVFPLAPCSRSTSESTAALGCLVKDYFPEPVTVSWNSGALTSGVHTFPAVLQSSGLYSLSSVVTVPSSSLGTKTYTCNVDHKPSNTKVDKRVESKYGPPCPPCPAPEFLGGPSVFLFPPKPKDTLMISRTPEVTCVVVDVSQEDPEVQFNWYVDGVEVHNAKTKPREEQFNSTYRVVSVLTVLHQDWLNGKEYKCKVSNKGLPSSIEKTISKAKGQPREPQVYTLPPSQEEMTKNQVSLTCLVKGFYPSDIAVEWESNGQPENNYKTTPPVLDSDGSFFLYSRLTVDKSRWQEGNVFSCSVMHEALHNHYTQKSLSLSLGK
light: EIVMTQSPATLSVSPGERATLSCRASQIISNNLHWYQQKPGQAPRLLIIYGLQSISGIPARFSGSRSGTEFTLTISSLQSEDFAVYFCQQSNNFPWTFGQGTKLEIKRTVAAPSVFIFPPSDEQLKSGTASVVCLLNNFYPREAKVQWKVDNALQSGNSQESVTEQDSKDSTYSLSSTLTLSKADYEKHKVYACEVTHQGLSSPVTKSFNRGEC
notes: M10-1275 series
With B4, the values for the EC50 in [1] and in assay [4] were 0.139 nM and 0.146 nM, respectively. Also, the “IC50 (read off the curve)” value in assay [5] and in [6] was around 0.4 nM each time. The dissociation constant Kd in [2] was determined as 0.00487 nM; in [3], 0.0128 nM.

B5: APE15142 (antibody, V domains shown)
VH: B1 VH with E31Y
VL: B1 VL
notes: M10-1275 series
For the molecule B5, the half-maximal effective concentration (EC50) is 0.147 nM in assay [1] and 0.163 nM in assay [4]. The Kd is 0.0105 nM in assay [2] and 0.0222 nM in [3].

B6: APE12383 (antibody, V domains shown)
VH: QVQLQQSGAELMKPGASVKISCKSTGYTFSRYWIEWVKQRPGHGLEWIGEILPGSGSINHNEKFQGKATFTADTSSNTVYMQLSSLTSEDSAVYFCTRHYGSFDYWGQGTTLTVSS
VL: EIVMTQSPKFMSTSVGDRVSVTCKASQNVGTDVAWYQQKPGQSPKALIYSASYRYNGVPDRFTGSGSGTDFTLTISNVQSEDLAEYFCHQYSSYPFTFGSGTKLEIKR
notes: M6-p1625 series; human kappa detected by the secondary antibody; also called APE 12383.03; M6-p1625
Consider B6, for which the figures for the EC50 in assay [7] and in [10] were 0.142 nM and 0.147 nM, respectively. Also, the equilibrium dissociation constant (Kd) is around 0.26 nM in [8], around 0.34 nM in assay [9], 0.26 nM in assay [2] and 0.34 nM in assay [3].

B7: APE15295 (antibody)
heavy: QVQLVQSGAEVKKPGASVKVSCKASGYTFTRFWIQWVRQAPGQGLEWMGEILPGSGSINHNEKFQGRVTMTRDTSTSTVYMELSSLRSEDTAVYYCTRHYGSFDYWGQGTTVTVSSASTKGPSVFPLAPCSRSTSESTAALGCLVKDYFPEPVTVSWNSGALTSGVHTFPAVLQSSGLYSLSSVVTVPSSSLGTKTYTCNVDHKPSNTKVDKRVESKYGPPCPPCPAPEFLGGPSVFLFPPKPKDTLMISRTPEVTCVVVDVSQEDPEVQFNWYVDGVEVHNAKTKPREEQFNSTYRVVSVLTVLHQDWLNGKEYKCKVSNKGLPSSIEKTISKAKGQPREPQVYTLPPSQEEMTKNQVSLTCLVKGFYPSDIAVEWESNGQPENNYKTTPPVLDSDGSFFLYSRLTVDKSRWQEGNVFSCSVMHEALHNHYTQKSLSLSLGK
light: DIQMTQSPSSLSASVGDRVTITCKASQNVGTDVAWYQQKPGKAPKSLIYSASYRYSGVPSRFSGSGSGTDFTLTISSLQPEDFATYFCHQYESYPFTFGQGTKLEIKRTVAAPSVFIFPPSDEQLKSGTASVVCLLNNFYPREAKVQWKVDNALQSGNSQESVTEQDSKDSTYSLSSTLTLSKADYEKHKVYACEVTHQGLSSPVTKSFNRGEC
notes: M6-p1625 series
For the molecule B7, the “IC50 (read off the curve)” value in assay [5] is around 0.05 nM; in assay [6], around 0.08 nM. For the same molecule, the equilibrium dissociation constant (Kd) in [2] was 0.0707 nM; in assay [3], 0.0557 nM.

B8: APE12705 (antibody, V domains shown)
VH: DVQLQQSGAELARPGASVKLSCTVSGFNFKDSLMHWVTQGPERGLRWIGWIDSENGETEYAPGFQDKATITADTSSSTVYLHLSSLTSEDTAIYYCARGGPWFLSYWGPGTTLTVSS
VL: DIVLTQTPATLSVTPGDSVSLSCRASQIISNNLHWYQQKSHESPRLLIIYGLQSISGIPYRFSGRRSGTDFTLNINSVEIEDFGMYFCQQSNNWPWTFGGGTKLDIRR
notes: M10-1275 series; human kappa detected by the secondary antibody; also called APE 12705.02; M10-1275
Turning to B8, the 50% effective concentration (EC50) in [7] amounted to 0.174 nM; in assay [10] it was 0.0876 nM. The Kd in assay [8] was around 0.02 nM; in [9], around 0.08 nM; in [2] it was 0.02 nM; in [3], 0.08 nM.

The values are drawn from patent publication US20260265385A1 (ANAPTYSBIO, published 2026).
